These results are taken from PMC5268773.

The target in test [1] is fibrin (purified fibrin clots) (UniProt P02671).
Test [2] concerns the target plasmin (Homo sapiens) (UniProt P00747). Particulars: cited from earlier work.
Test [3] concerns the target plasminogen (Homo sapiens) (UniProt P00747). Particulars: cited from earlier work.
Test [4] addresses plasmin (Homo sapiens) (UniProt P00747). Kind of test: SPR. The settings on record: cited from earlier work.

In general, Kd refers to the equilibrium constant for the complex coming apart.

Where two headings read alike, the source gives them in different places.

Chain of streptokinase (P10520 27-440): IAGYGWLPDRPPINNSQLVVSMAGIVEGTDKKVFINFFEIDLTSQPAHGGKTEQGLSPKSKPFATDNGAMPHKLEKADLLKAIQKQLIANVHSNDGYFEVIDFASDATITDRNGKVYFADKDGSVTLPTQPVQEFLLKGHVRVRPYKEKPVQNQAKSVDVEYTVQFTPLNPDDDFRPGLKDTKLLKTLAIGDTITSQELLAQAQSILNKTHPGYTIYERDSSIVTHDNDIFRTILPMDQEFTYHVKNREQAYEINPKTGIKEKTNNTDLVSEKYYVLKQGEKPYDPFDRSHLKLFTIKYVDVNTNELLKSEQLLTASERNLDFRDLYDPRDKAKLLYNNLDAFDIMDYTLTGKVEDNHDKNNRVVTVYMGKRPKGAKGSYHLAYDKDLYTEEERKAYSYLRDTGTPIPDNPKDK
Chain of UniProt P02671 (P02671 36-866, chain 1 of 3): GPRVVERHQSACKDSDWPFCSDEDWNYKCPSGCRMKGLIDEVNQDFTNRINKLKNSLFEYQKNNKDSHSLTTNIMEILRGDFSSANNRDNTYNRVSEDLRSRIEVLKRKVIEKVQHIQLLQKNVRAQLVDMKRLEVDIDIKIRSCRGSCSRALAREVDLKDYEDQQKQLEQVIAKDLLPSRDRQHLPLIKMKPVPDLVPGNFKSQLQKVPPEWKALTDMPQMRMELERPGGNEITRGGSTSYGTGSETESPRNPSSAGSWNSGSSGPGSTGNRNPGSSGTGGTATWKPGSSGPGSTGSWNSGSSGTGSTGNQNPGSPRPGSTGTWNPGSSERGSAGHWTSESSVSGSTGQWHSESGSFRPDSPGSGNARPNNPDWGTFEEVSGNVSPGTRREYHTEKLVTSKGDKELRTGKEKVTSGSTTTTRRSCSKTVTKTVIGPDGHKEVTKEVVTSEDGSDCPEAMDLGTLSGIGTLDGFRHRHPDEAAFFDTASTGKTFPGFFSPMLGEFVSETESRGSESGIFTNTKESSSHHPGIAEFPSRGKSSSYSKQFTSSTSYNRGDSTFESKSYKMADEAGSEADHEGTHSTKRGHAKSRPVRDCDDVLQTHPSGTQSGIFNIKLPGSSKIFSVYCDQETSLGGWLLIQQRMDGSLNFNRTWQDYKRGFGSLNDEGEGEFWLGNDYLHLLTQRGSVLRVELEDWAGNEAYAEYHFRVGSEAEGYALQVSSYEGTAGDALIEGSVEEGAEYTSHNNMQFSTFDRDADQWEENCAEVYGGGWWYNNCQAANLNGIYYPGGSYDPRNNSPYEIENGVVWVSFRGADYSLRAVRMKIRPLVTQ
Chain of UniProt P02671 (P02675 45-491, chain 2 of 3, further chain): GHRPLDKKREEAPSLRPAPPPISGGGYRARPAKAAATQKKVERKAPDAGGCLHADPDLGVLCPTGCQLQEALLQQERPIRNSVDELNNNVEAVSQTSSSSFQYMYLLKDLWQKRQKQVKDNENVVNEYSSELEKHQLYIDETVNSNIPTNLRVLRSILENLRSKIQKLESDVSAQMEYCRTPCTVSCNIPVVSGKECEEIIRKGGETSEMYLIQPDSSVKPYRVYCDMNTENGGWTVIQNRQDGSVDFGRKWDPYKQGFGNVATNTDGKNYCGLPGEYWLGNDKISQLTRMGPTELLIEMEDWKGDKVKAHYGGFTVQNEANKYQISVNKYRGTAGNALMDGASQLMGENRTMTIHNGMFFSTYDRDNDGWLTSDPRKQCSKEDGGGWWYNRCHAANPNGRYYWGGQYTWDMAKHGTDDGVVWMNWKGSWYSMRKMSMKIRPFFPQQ
Chain of UniProt P02671 (P02679 27-453, chain 3 of 3, further chain): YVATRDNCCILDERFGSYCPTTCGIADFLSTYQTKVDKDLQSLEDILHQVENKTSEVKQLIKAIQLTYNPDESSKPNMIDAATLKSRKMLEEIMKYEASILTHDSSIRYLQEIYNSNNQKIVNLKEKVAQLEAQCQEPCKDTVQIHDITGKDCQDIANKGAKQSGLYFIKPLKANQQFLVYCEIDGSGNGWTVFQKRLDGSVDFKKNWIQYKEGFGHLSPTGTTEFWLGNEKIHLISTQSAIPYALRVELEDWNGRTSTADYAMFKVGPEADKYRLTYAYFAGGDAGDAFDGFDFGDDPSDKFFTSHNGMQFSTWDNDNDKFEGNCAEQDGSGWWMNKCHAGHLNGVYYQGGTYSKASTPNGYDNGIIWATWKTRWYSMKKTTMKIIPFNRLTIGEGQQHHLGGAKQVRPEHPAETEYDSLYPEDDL

Take “recombinant streptokinase from the M1 type group A streptococcus, Streptococcus pyogenes strain SF370 (rSK-M1GAS) (natural protein)”: in test [1], the IC50 of tranexamic acid (TA) for inhibition of Pgn activation by rSK-M1GAS in fibrin turned out to be 133000 nM.

streptokinase (from UniProt P10520): the Kd was 0.3 nM with plasmin (Homo sapiens) [2], 6 nM in test [3] and 0.5 nM with plasmin (Homo sapiens) [4].
